The supplement of paper PMC7877785
± gives the uncertainty stated by the source.

Experiment: self-splicing fitness, log relative to wild type (ln ratio); higher = more splicing; Tetrahymena group I intron in knt gene, E. coli kanamycin selection, DiMSum; sequences stand for … in CUCUCU…GGAGGGAAAAGUUAUCAGGCAUGCACCUGGUAGCUAGUCUUUAAACCAAUAGAUUGCAUCGGUUUAAAAGGCAAGACCGUCAAAUUGCGGGAAAGGGGUCAACAGCCGUUCAGUACCAAGUCUCAGGGGAAACUUUGAGAUGGCCUUGCAAAGGGUAUGGUAAUAAGCUGACGGACAUGGUCCUAACCACGCAGCCAAGUCCUAAGUCAACAGAUCUUCUGUUGAUAUGGAUGCAGUUCACAGACUAAAUGUCGGUCGGGGAAGAUGUAUUCUUCUCAUAAGAUAUAGUCGGACCUCUCCUUAAUGGGAGCUAGCGGAUGAAGUGAUGCAACACUGGAGCCGCUGGGAACUAAUUUGUAUGCGAAAGUAUAUUGAUUAGUUUUGGAGUACUCGUGGUCG
Summary of the method: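 DiMSum derived fitness as the error-weighted combination of fold changes across replicates, kanamycin versus no kanamycin, normalised to wild type. E. coli BL21(DE3) held the library, which randomised all eight P1ex-region intron nucleotides within the knt kanamycin-resistance gene on pET-22b(+). Six replicate transformations grew overnight at 37°C or 30°C on LB agar with or without 25 μg/mL kanamycin, also containing 100 μg/mL carbenicillin, 50 μM IPTG and 0.2% rhamnose, and pooled colonies were amplicon-sequenced on an Illumina HiSeq 2500.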

Sequence	self-splicing fitness (ln) (30 °C)	self-splicing fitness (ln) (37 °C)
CCAGAGCAAUAUUACGUUCC	-4.16 ± 0.31	-2.6 ± 0.44
CCAGAGCAAUAUUACGUUUG	-2.32 ± 0.11	-2.25 ± 0.17
CCAUAGCAAUAUUACGAACA	-3.77 ± 0.22	-2.41 ± 0.25
CCAUAGCAAUAUUACGACAG	-1.16 ± 0.092	-0.413 ± 0.1
CCAUAGCAAUAUUACGAGUU	-3.76 ± 0.36	-2.1 ± 0.31
CCAUAGCAAUAUUACGAUUG	-1.17 ± 0.07	-0.642 ± 0.083
CCAUAGCAAUAUUACGCAAC	-2.54 ± 0.28	–
CCAUAGCAAUAUUACGCAGG	-3.98 ± 0.28	-3.18 ± 0.35
CCAUAGCAAUAUUACGCCCA	-1.9 ± 0.34	-1.86 ± 0.35
CCAUAGCAAUAUUACGCCGG	-2.5 ± 0.21	-3.15 ± 0.47
CCAUAGCAAUAUUACGCGCA	-2.65 ± 0.27	-2 ± 0.34
CCAUAGCAAUAUUACGCGGA	-2.87 ± 0.16	-2.26 ± 0.17
CCAUAGCAAUAUUACGCUGA	-3.52 ± 0.41	-1.99 ± 0.28
CCAUAGCAAUAUUACGCUUA	-2.56 ± 0.26	-3.5 ± 0.33
CCAUAGCAAUAUUACGCUUG	-2.3 ± 0.093	-1.35 ± 0.091
CCAUAGCAAUAUUACGGUCA	-3 ± 0.16	-1.44 ± 0.2
CCAUAGCAAUAUUACGGUCC	-2.72 ± 0.26	-1.99 ± 0.42
CCAUAGCAAUAUUACGUCUA	-4.41 ± 0.34	-2.47 ± 0.18
CCAUAGCAAUAUUACGUGCU	-3.88 ± 0.17	-2.1 ± 0.15
CCAUAGCAAUAUUACGUUCU	-3.64 ± 0.25	-3.4 ± 0.32
CCCAAGCAAUAUUACGAAGC	-3.21 ± 0.2	-2.7 ± 0.24
CCCAAGCAAUAUUACGAAUA	-3.15 ± 0.27	-2.68 ± 0.25
CCCAAGCAAUAUUACGACGU	-2.11 ± 0.13	-2.43 ± 0.2
CCCAAGCAAUAUUACGACUU	-4.21 ± 0.2	-2.9 ± 0.17

Sequence	self-splicing fitness (ln) (30 °C)	self-splicing fitness (ln) (37 °C)
CCCAAGCAAUAUUACGAUUU	-2.62 ± 0.13	-2.21 ± 0.17
CCCAAGCAAUAUUACGCAGC	-3.93 ± 0.29	-3.49 ± 0.34
CCCAAGCAAUAUUACGCCAC	-2.48 ± 0.25	-1.49 ± 0.22
CCCAAGCAAUAUUACGGACG	-2.8 ± 0.13	-2.17 ± 0.11
CCCAAGCAAUAUUACGGAGC	-3.64 ± 0.18	-2.21 ± 0.17
CCCAAGCAAUAUUACGGAUA	-2.84 ± 0.22	-2.17 ± 0.21
CCCAAGCAAUAUUACGGAUC	-4.28 ± 0.23	-2.45 ± 0.15
CCCAAGCAAUAUUACGGAUU	-2.56 ± 0.12	-2.71 ± 0.16
CCCAAGCAAUAUUACGGCGA	-3.88 ± 0.2	-1.69 ± 0.17
CCCAAGCAAUAUUACGGGGG	-3.6 ± 0.13	-3 ± 0.19
CCCAAGCAAUAUUACGGUUU	-3.72 ± 0.12	-2.92 ± 0.11
CCCAAGCAAUAUUACGUAUU	-3.8 ± 0.16	-2.7 ± 0.17
CCCAAGCAAUAUUACGUCGU	-4.05 ± 0.2	-2.31 ± 0.15
CCCAAGCAAUAUUACGUGAG	-2.48 ± 0.09	-0.85 ± 0.08
CCCAAGCAAUAUUACGUGGU	-3.27 ± 0.087	-1.86 ± 0.084
CCCAAGCAAUAUUACGUUGC	-3.18 ± 0.25	-2.16 ± 0.21
CCCCAGCAAUAUUACGACCG	-4.12 ± 0.26	-1.76 ± 0.34
CCCCAGCAAUAUUACGACGC	-3.17 ± 0.25	-3.22 ± 0.35
CCCCAGCAAUAUUACGACUU	-3.29 ± 0.13	-3 ± 0.22
CCCCAGCAAUAUUACGAGAC	-3.9 ± 0.18	-2.37 ± 0.21
CCCCAGCAAUAUUACGAGAG	-3.91 ± 0.23	-2.05 ± 0.17
CCCCAGCAAUAUUACGAGAU	-3.78 ± 0.17	-2.3 ± 0.2
CCCCAGCAAUAUUACGAGCG	-4.16 ± 0.24	-2.62 ± 0.23
